Tests used:
[1] = biological target: T1, wild-type EGFR on U87MG.wtEGFR human glioma cells (UniProt P00533 25-1210, limits assumed); assay: FACS on U87MG.wtEGFR cells, culture medium, anti-alpha tubulin and FITC anti-rat detection
T1 construct: whole, on cells; Estimated at >3x10^6 EGFR per cell; also called native full length epidermal growth factor receptor
Description: (§1) The cells, U87MG, U87MG.wtEGFR and U87MG.AEGFR were incubated with culture medium, culture medium from pSECTAG or p6.34 for 30 min at 4° C. The cells were washed, then incubated with rat anti-alpha tubulin followed by FITC-labeled anti-rat antibody.
(§2) The EGFR has three major domains, intracellular, transmembrane and extracellular, any of which may serve as the binding site for clone p6.34. To examine whether the scFv binds to the extracellular portion of the receptor, a FACS analysis was used for this determination. For this assay, culture medium collected from U87MG.pSECTAG or U87MG.pSECTAG.6.34.A8 was allowed to interact with the cell surface of 3 different human glioma sublines; U87MG, U87MG.wtEGFR and U87MG.AEGFR (provided by Dr. H-J. Su Huang, UCSD).

[2] = biological target: T2, truncated EGFR, EGFRvIII, on U87MG.deltaEGFR human glioma cells (UniProt P00533 25-1210); assay: FACS on U87MG.deltaEGFR cells, culture medium, anti-alpha tubulin and FITC anti-rat detection
T2 construct: whole, on cells; also called U87MG.AEGFR; truncated and/or mutated epidermal growth factor receptor
Description: as §1, §2

B1: secretory anti-EGFR scFv clone 6 secreted by stably transfected U87MG.6.34.A8 cells (clone p6.34) (scFv, not shown: small tags and cut ends)
scFv: EVQLVESGGGLVQPGGSLRLSCSASGFTFSSYAMHWVRQAPGKGLEYVSAISSNGGSTYYADSVKGRFTISRDNSKNTLYLQMSSLRAEDTAVYYCVKDVGGSSWYWADYFDYWGQGTLVTVSSGSASAPKLEEGEFSEARVQSVLTQPPSLSVSPGQTASITCSGDKLGDKYASWYQQKPGQSPVLVIYQDRKRPSGIPERFSGSNSGNTATLTISGTQAMDEADYYCQAWDSSTPYVFGTGTKVTVLGQPKANPTVTLFPPSSAAA
notes: The scFv insert was moved from pSEX81 as a Bpu1102I/NotI fragment behind an Ig kappa leader; also called scFv p6.34; clone p6.34 scFv
binding result [1]: binds
binding result [2]: binds
